Reference: the DeepSol protein solubility set

experiment: soluble on expression in E. coli; label from the status in PepcDB or PDB records

Row | Sequence | soluble on expression in E. coli
1 | MHHHHHHSSGVDLGTENLYFQSMENFNNFYILTSKELGRGKFAVVRQCISKSTGQEYAAKFLKKRRRGQDCRAEILHEIAVLELAKSCPRVINLHEVYENTSEIILILEYAAGGEIFSLCLPELAEMVSENDVIRLIKQILEGVYYLHQNNIVHLDLKPQNILLSSIYPLGDIKIVDFGMSRKIGHACELREIMGTPEYLAPEILNYDPITTATDMWNIGIIAYMLLTHTSPFVGEDNQETYLNISQVNVDYSEETFSSVSQLATDFIQSLLVKNPEKRPTAEICLSHSWLQQWDFENLFHPEETSSSSQTQDHSVRSSEDKTSKSS | soluble
2 | DKVQNAVMQAMVRGSLNKDLAAQIKDLGKTTEKRAMFIARDQSSKLNAALTQARHEEVGIKKYMWSASLDERVRESHAEKDGQIFEYANPPADTDHPGHDFNCRCVQI | not soluble
3 | RPVWYGEPVDIQPEHRDMMLVVDLSGSMAEEDMKTSNGDFVDRLTAVKQVVSDFIDQRKGDRLGLVLFGDHAYLQTPLTFDRNTVREQLDRTVLNLVGQRTAIGEGLGLATKTFIESNAPQRTIILLSDGANTAGVLEPLEAAQLAKDNHAKIYTVGIGAGEMQVRGFFGKQTVNTARDLDEDTLTKIATMTGGQYFRARNADELAEIYQTIDALEP | soluble
4 | MYLLLSLALVCTAAASSGYGIPANDDPSYSPPANDNPSYSAPANSDNRLYYDYSSRSSSSSSDSSEERECRKLREFDLPSELKSIGVKAKFSEMERRGKTYTTISCPSNTKTYAIIADKSGSNVSQGDITIQDAVLLATGVNIDVVGRCRGRRTTVVANNGDEVKIKTVVCVELSTSPDKY | not soluble
5 | MSLTQDYELVVKGVRNFENKVAVTVALRDKKRFDGEIFDLDISLDRVEGAALEFYEAAARMRIRQVFLDVAAGLCVGDEQSPEKRPIILEAQNVWITYKGKLPGRITGSLKTPPTALRSEGHHHHHH | not soluble
6 | MAHHHHHHMGTLEAQTQGPGSMSGDRDDPRYPYPKDDAELRRRLTPMQYEVTQHAATEPPFTGEYTDTEDAGIYHCVVCGTALFESGAKYHSGCGWPSYFKPIDGEVIDEKMDYTHGMTRVEVRCNQCGAHLGHVFEDGPRDKTGLRYCINSAALNFEAKPERK | soluble
7 | MDKFKSMTELKELTKEGKDWEIECENRSSIVTILALHGGGIEPATTELAYTIAHCGDYNYFSFKGMRSKGNNELHVTSTHYDDQIALDLVRGSQRTVAIHGCEGNESVAYIGGSDDRLIELITESLEDIGISVREAPHHISGTQENNIVNMTQTQGGVQLELTAQLRKELFKNRKSSLEHHHHHH | not soluble
8 | MPFWGAGIKILHISEDFRTVKVRLKLRWWNKNANRTQYGGSIFSLTDPIYSLMLMGILREEYYVWDKEASINFIKPGQSDLFAEFEITDGMLDEIYQMTRNGEKCFPEFITHVKDKQGNVVSEVQRKLYVRKLEHHHHHH | not soluble
9 | TFKHSRDILGRTFDILVIDLSYDYSPNDLGRIIETVRGGGLIFVLTNPFEKWKDMWTGFHKSLVTPPYTIEDVKKRFNRRLIRKFTEHKGIYIVNTDRMSIERKPG | not soluble
10 | MGSDKIHHHHHHMAWTSAQGATAAMTVVDGVTGLPIAGATVVSAGAERVTANDGTFMMPMDGPDGGIAMTVRAPGYARLETVANGTTPRAIALAPLLAEEAARMGFDEVQFDYLRFPDAPGLRFSETNTSARRVAAITGFLSAARDRLRHYNIYLSADIFGYVCWNLDDTAIGQQLETLVVLSTTFHRCCIRPVSPSGWRRSGATSHPSRRGLP | not soluble
11 | MGSDKIHHHHHHMDKMLYTAASGASRIMEAQSIRANNLANAETTGFKADLERVKSMALPGVEASLSTRVLVQTQSNGFSQQSGEMNHTGRNLDMAIRDRGLFTVMVDGGEAYTRAGAMIADAEGQLTVNGRPVLGIDGPMVLPEHKDLFVGEDGTISVLPAEGGVIQEVGRLKMVNPELNELTKGADGLLYPIAAGVLAADDGVQVDSGYLESSNVQAVSELIASMDLSRQFEIQVKLMKSAEKLAEAGNRLIRNA | not soluble
12 | MGSDKIHHHHHHMIDVIIVGGGPTGTMLASELRLHGVHTVVVEKRAEPTRIVRGLGLHVRSIEIMDQRGLLERFLAHGTKHPVGGYFAGIMKPWPKSLDTAHPYILGIPQPTTDRLLEERASELGADIRRGWELVGLSQDEDGVTAQLADGTQLRARYLVGCDGGRSTVRTLLGVGFPGESATTEWLLGEVKATASPETVAAVMAKVRQTQLGFAMGPLDDGVYRAVVPAAHVSEDRAAPPTLEEFAQRLREVTGTDFGVHSPRWLSRFNDATRQAERYRVGRVLLAGDAAHIHAPLGGQGLNLGIQDAFNLGWKLAAAVNGWAPEGLLDSYHTERHPVAAEVLDNTLAQSAFMSTDPRARAAHRLLLELMDFEEVNRHVMEKITAVGVRYDFGDGHALLGRRLRDVRLGQGRLYERMRHGRGVLLDRTGRLSVAGWADRVDHVADSAAEIDVPALLLRPDGHVAWIGEDQDDLLAHLPRWFGDPAA | not soluble
13 | SMNNKEVELYGGAITTVVPPGFIDASTLREVPDTQEVYVNSRRDEEEFEDGLATNESIIVDLLETVDKSDLKEAWQFHVEDLTELNGTTKWEALQEDTVQQGTKFTGLVMEVANKWGKPDLAQTVVIGVALIRLTQFDTDVVISINVPLTKEEASQASNKELPARCHAVYQLLQEMVRKFHVVDTSLFA | soluble
14 | MGSDKIHHHHHHMMPYITDIAALEHVGVAAAWTEKVPAFRVLREKRMLDFRAPITVITGENGVGKSTLLEAIAINAGFDTAGGEHTGKFKPSDNPLQTVAKAHKGKEPMRGYFLRAETHFNVASGYRDEAPGWVNLHHMSHGESVMHIVQNAFVGKGLYLMDEPEAGLSFIRQMAILAELNFLAESGAQIIIVTHSPVLMAIPGAEIWEFSASGELHRGFDFEVTTAFRALRDFFEDPEEIAEYMMDVMMDNKGES | not soluble
15 | MSLSELIDNRAQRVRTLKGIIKRLHAGDAPDEVRNSLKELVCQTDYSEVMAMEQELIADGMPVEEIQGMCDLHSQVTREVLVQLAPAPVPPGHPVDTFRRENKALRESAARLQKAMNGVLETADDGDASARLLEWRQALNELQDVDKHYQRKEHLLSTCLERHGITGPSKVMWGKDDQIRELLKDTSVALRQSDTSVAELKVLAATTGAAAAGAVHEMIYKEEQILLPICLERFTADEWAEIWASSPRYGWCLVEPRQGYKPFTSEAAGRASVDGGVSLPTGALALEQLIAIFSTLPVDLTFVDANDRVAFFSEGPSRVFARSRTIVGRMVQNCHPPRSVDVVERILSDFREGRQNVAEFWLQFVGRFVHIRYFAVRSEDGRYLGTLEVTQDVGPIRALEGERRLLEYAEPSEGHHHHHH | soluble
16 | MTGTYEQPVIDATYHNDDQGGHANQLVLKYVEDRKLSKVFKRICDSFKDYYNQPEDMTDEELDYQRVVSLSKSTQGKVNNRDTLIAFISDHNQLAEHLSMNYKEMTPEDLGAILESISQAFNHLYDMVVEGQLLVK | not soluble
17 | MSLTQKRLGLIMNGITGRMGLNQHLIRSVVAIRAQGGVPLSDGTKVQLDPILIGRNADKVEGLAKQYGIERWGTDLDAALADPGNEIFFDAATTQMRPILLEKAIRAGKHVYCEKPIATNLPEAVRICRLAEEKGVKNGVVQDKLFLPGLQKLKLLRDSGFFGRMISVRGEFGYWVFEGDWGQPAQRPSWNYRSQEGGGMILDMVCHWRYVLDNLFGEVKSVSCLGATHIPSRVDERGQPYEATADDAAYATFELQDGVIAHINMSWCTRVYRDDLVTFQVDGTLGSAVAGLSDCVFQSRVGTPRPVWNPDQKQTMDFYNHWQPVPDTAVFDNGFKVQWEMFIRHVVEDAPYRFTLREGAKGVQLVECALQSWKERRWIDVPTLEASERAVLQAAEEGHHHHHH | soluble
18 | MNAPPAWAADILKKASSQALDLYNKGIGGNVYQGERIAGLGTMTKNALTGLEQAVGQYNNPALTQWFNAPTQSAHNLLGMAKGDWIGNNSKFNAALQSALSKTSDAINQSMAGAGRYGSGAHTGVLADELGALATNAAAQQYNQDIHNMMNANQMIDRSLYDQVNAANNYYQGQSNAQSNALKGGLIQDVNRQNALDAERQKWTEQDNQAWNQLERLLRVGTQAAGNYGTTSGKSTTMPSVTKDPLRDAQQVLGLMGGILGLCDVRAKENIVPVGEKNGYPLYVFNYKGDPQRYCGVLAQEVLRLKPEAVFVNAKTKLLHVDYNKIGLKMKKISEPKKRIATFFSALFARFPFLQKGYLLLEHHHHHH | soluble
19 | MGSDKIHHHHHHAQQAPAPCGLVPSARQLEWYNREMIAFFHFGINTFEEYVNEGDGKASTAIFNPTALDCRQWMQTLKAAGIPAAILTAKHADGFCLWPSKYTDYSVKNAAWKNGKGDVVREFVDACEEYGLKAGIYLGPHDRHEHLSPLYTTERYKEYYAHQLGELMSDYGKIWETWWDGAGADELTTPVYRHWYKIVREKQPDCVIFGTKNSYPFADVRWMGNEAGEAGDPCWATTDSVAIRDEAQYYKGLNEGMLDGDAYIPAETDVSIRPSWFYHAEEDSRVKSVRELWDIYCTSVGRNSVLLLNFPPDRRGLIHSTDSLHAALLKQGIDETFSTNLLRGAKVKATNVRGAKYSPEKMLDNEKNTYFAGKDGEVKADIIFTLPKTIEFDCLMIEEVIELGHRTTKWSVEYTVDGKNWITIPEATDKQAIGHKWIVRLAPVKAKQVRLRIQDGKACPAIHTFGVYKQSPVFKL | not soluble
20 | AIAARRNYQVERNKLEEKDPTWLMQKGQIQPLVSSLVVLNVEGERILARYTAKELFPTFDVEKKFEADLLKKSQTIPDLEERVFEHGQHIVVCRASEDLLFFVTSRIYENEVILSEVLTCWVDSLVKVLKNLPLNELNLLQHYEVLLLLVDELVDQEGVIMETDANELSSRTEFAMYSTDPRDLIPELTEQGFSHALQTAKQHLARTILK | soluble
21 | MGSDKIHHHHHHMSEEKNTAIDLKNLKAGGFIKERGKDLFTVRLRVPGGRLPVGRLKKIAEVAEKYGQGMVHLSVRQSVELININFRDFDAVVAELGEGTQKVASCGARVRVPTACGGCEYNPNGLVDTQKSALEVDEKLFGIPTGHHKFKVGFAGCPFDCPKSATNDVGFQGAVWPVLSADHCIGCGLCAKSCTEDAIAMGDNGKPLFIPANCLYCGDCLKVCPTEAWRAGKKGYTVRIGGKWGRRPLVGTLFAEFLPEDQVVDFIAAVLGWYQEKAEGQGRIRLGDVIRAQGPEALLARLRERFPAFVVNATIAPQAIATQVGKEKQAHDNR | not soluble
22 | GPGSMFHRAFVSSSDLTGCTIALSSVCTQKRYWAKPKKRPKVGQGFHEKAQKWREEYLLDRHRALADSLRAYVEFSTSKRVEPWDARFKPFDRIEKDGVYVLMRYMMEEKLQLCNYHHRPVKRLFCNIGLMGPQITTKARWKPYRFATNPAGTSKAERMYQRDKTVYTHGHND | not soluble
23 | MGSDKIHHHHHHMKFKERLQYLRLEKELSEIQLSKKVGISESVIRLYERGKLRIDLEHLHKLAAFFDVTPGLLLGTAFPHLPPEEALESYRVVNKLLEIRNEERKDEEDSPLFIDTLAQLAAESNKSDNKASNRQATIRAGVVAVYHKIVSAHSEANQEFIEDYWPVNTTVMQIYGHDISNYFYLRVHGDFMEPTIKNQSIVLAKRQVQVDNNDLAVVLYEQSPAAVKRLNRYEDKIILLCDNKAHPAQICEQEKCIILGKVLWKPK | not soluble
24 | MDMDEKDVVETEEESFAELFEKSNSETQRLRPGSKVEGKILKIGAEWVFIDIGKKGEGVMERKELQDAEGNLTVAEGDTITAWFTGSVRNEMRFTTKLGAGAAANAQLEEAHRSGIPVEGFVVKEIKGGFEVRLSGTTRAFCPFSQISLRRAENPAEFVGKHLLFKVTEYSERGRNIVLSHRQILEEEQRVKREALKEVLLEGMTVTGTVTRLADFGAFVDLGGVDGLIPVSEVGWTRVKHVRDVLSVGEQVSVVIKKIDWEAGKISLSLKDTLADPWTTVAEQFPEGSYHTGTVARLAAFGAFVTLAPGIDGLIHISKLGKGKRINHPSDVLKEGETVEVKVDGVDREARRLSLALAEVSRAAEEEEKSVASFRQQATSSSKESMGSFGDLLKAKIEEKRLEHHHHHH | not soluble
